From PMC2999606 come the findings set out here.

The test addresses Flag-tagged chicken p53 (chicken) (UniProt P10360).
Sequence of UniProt P10360 (P10360 whole entry): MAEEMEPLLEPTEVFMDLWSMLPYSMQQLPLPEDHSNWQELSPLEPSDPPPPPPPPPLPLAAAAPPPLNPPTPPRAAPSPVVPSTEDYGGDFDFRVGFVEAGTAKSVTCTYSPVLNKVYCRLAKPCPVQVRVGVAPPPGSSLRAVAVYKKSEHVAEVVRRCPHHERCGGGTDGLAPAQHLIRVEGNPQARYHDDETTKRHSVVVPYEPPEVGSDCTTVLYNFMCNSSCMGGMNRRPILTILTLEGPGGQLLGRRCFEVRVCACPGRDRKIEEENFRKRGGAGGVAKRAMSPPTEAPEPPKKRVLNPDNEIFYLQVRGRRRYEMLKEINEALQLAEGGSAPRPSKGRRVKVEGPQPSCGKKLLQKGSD

Consider GFP-tagged Meq (natural protein), for which the p53-mediated apoptosis (TUNEL assay, percent of apoptotic cells) in CEFs co-transfected with Flag-p53 and Flag-Meq at 1:10 molar ratio; approximately 46% with Flag-p53 alone is 12 % of cells.
